Key:
purified protein [1] = substrate: O=C(O)CC(=O)C(=O)O; test: purified protein; conditions: 100 μM NADH, 0.1 M phosphate pH 7.5, 0.1 M KCl, 24 °C
purified protein [2] = substrate: NC(=O)C1=CN([C@@H]2O[C@H](COP(=O)(O)OP(=O)(O)OC[C@H]3O[C@@H](n4cnc5c(N)ncnc54)[C@H](O)[C@@H]3O)[C@@H](O)[C@H]2O)C=CC1; test: purified protein; conditions: 150 μM oxaloacetate, 0.1 M phosphate pH 7.5, 0.1 M KCl, 24 °C

| Protein | Km (purified protein [1]) [µM] | Km (purified protein [2]) [µM] |
| --- | --- | --- |
| recombinant MDH-1 (Caenorhabditis elegans) (protein) MSAPLRVLVTGAAGQIGYSIVIRIADGTVFGKEQPVELVLLDVPQCSNILEGVVFELQDCALPTLFSVVAVTDEKSAFTGIDYAFLVGAMPRREGMERKDLLAANVKIFKSQGKALAEYAKPTTKVIVVGNPANTNAFIAAKYAAGKIPAKNFSAMTRLDHNRALAQLALKTGTTIGNVKNVIIWGNHSGTQFPDVTHATVNKNGTETDAYAAVGDNAFLQGPFIATVQKRGGVIIEKRKLSSAMSAAKAACDHIHDWHFGTKAGQFVSMAVPSDGSYGIPQGLIFSFPVTIEGGEWKIVQGLSFDDFAKGKIAATTKELEEERDDALKACDDANI | 54 ± 4 | 61 ± 6 |
| endogenous MDH-1 (Caenorhabditis elegans) (protein) MSAPLRVLVTGAAGQIGYSIVIRIADGTVFGKEQPVELVLLDVPQCSNILEGVVFELQDCALPTLFSVVAVTDEKSAFTGIDYAFLVGAMPRREGMERKDLLAANVKIFKSQGKALAEYAKPTTKVIVVGNPANTNAFIAAKYAAGKIPAKNFSAMTRLDHNRALAQLALKTGTTIGNVKNVIIWGNHSGTQFPDVTHATVNKNGTETDAYAAVGDNAFLQGPFIATVQKRGGVIIEKRKLSSAMSAAKAACDHIHDWHFGTKAGQFVSMAVPSDGSYGIPQGLIFSFPVTIEGGEWKIVQGLSFDDFAKGKIAATTKELEEERDDALKACDDANI | 50 ± 4 |  |
| recombinant MDH-2 (Caenorhabditis elegans) (protein) SQAPKVALLGAAGGIGQPLGLLLKQDPLVAHLALYDVVNTPGVAADLSHIDSNAKVTAHTGPKELYAAVENADVIVIPAGVPRKPGMTRDDLFNTNAGIVRDLAAVIAKASPKALIAIITNPVNSTVPIASEVLKKAGVYDPKRVFGVTTLDVVRSQAFVSELKGHDASKTVVPVVGGHAGITIIPLLSQVKPSTKFSEEEISKLTPRIQDAGTEVVNAKAGAGSATLSMALAGARFANALVRGIKGEKNVQCAYVASDAVKGVEYFSTPVELGPNGVEKILGVGKVSAYEQKLIDASVPELNKNIAKGVAFVKGN | 52 ± 4 |  |
| endogenous MDH-2 (Caenorhabditis elegans) (protein) SQAPKVALLGAAGGIGQPLGLLLKQDPLVAHLALYDVVNTPGVAADLSHIDSNAKVTAHTGPKELYAAVENADVIVIPAGVPRKPGMTRDDLFNTNAGIVRDLAAVIAKASPKALIAIITNPVNSTVPIASEVLKKAGVYDPKRVFGVTTLDVVRSQAFVSELKGHDASKTVVPVVGGHAGITIIPLLSQVKPSTKFSEEEISKLTPRIQDAGTEVVNAKAGAGSATLSMALAGARFANALVRGIKGEKNVQCAYVASDAVKGVEYFSTPVELGPNGVEKILGVGKVSAYEQKLIDASVPELNKNIAKGVAFVKGN | 42 ± 2 |  |
